# From the supplement of paper PMC12636428
# Tested on: Saccharomyces cerevisiae
# Assay: transcriptional activation domain activity (GFP:mCherry ratio, weighted mean of sorted bins, harmonized to initial dataset scale) (arbitrary fluorescence ratio units); higher = stronger transcriptional activation
# Details: beta-estradiol 1 µM; induction time 4 h
# Outline: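 Protein tiles carrying barcodes and fused to an estradiol-inducible synthetic transcription factor were placed at the URA3 locus of yeast diploids with a GFP reporter. Following 4 hours at 30 °C in SC with 1 uM beta-estradiol, cells were sorted into 8 GFP:mCherry bins, barcodes were sequenced, and tiles with fewer than 50 reads were discarded. Activation activity is given as the read-weighted mean of bin median fluorescence, averaged across barcodes and linearly mapped to the initial dataset scale.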
row,Sequence,transcriptional activation domain activity
1,GEKAEGANGEGSGAEGSRRRPSGRGRGRGRGRGGRGGRGGRATNEAGDEKKEG,22500
2,VLLLVIFACAIVYLKSLVYSPSPFPTLIACYMSHSNRRYLSVMYGVVLVHQIT,75600
3,MQGSGKLSGLIFLSCFFSLLFFFFSFLFFYFFLLSNQLLFFCPNLVLDVALFT,18000
4,MSENTAIENVTVTLEKTKLDAPVTNEAEVAHAASAAEGRRLYIGNLAYSTTEE,16900
5,ARFNLYLLSWLHVLSAKSASLGSSKAWWIRPAEIAMMSCYWYIFGYLLLWCTL,65800
6,MFTRLLRYLHCSHFCFAIATRFRGWIGLFSPLYVSCFSQPFRFRYLGCLLFLF,52800
7,PPGNRTGAVTIGDESINGSEMPDFSLDLVSNDRQTGLEALDYDIHNYFPQHSE,75200
8,HFILLHCNQLKNWFNNNQITWVIPKIGKCSHKIQVVSSHVLRAVHLFSQKYYL,58700
9,EDKAAEDGAAKKPKTTELPGGVKIQDMKVGSGPQAKPGKKIGMRYIGKLQGSN,30600
10,SPLNSFDRSFYPIGCTNLSNDIPGYSFLNDAMSEIHTFGDFNGELDSTFLEFS,131000
11,MLCLCTIWIYNAQICYYLSSCSTLLVTDCCCCYYYSLLFYILTSSFFQILLST,50100
12,VRWIRVRKHIVMAATLAEPFTESIVLVVIGSSSLKYLVGLPRWLCILVHFFLL,35900
13,MGYGEQRGSFGGRGGRGGSRGGRGGFGGGDRFNQGPPSEVVVVGAFVSACEGE,52900
14,VAECLKAMVKWPITMSPTCFHKRLIPCIFFWSQNLLGILLLLHLTEQVPILVR,72600
15,SFLEGAQHVVLGPGNFQWRGTKCKSFDAFIFNFIRVPRLEYWKLIRRSNCYRY,52500
16,RSDRDRRRKQSPESRGRRHRSRSKDARREKRKRADSEGEQSARRSRPSEHHRR,19100
17,NSLRNLFDLVGCSSLCSSSQKRGFVGRLVVDFASCAWPPVIVILLIWISLFWW,39200
18,RKERKREKESERRERHHRRSQTHSSDEARERHRDGKTKQSRSSDRDPRKTRAR,30800
19,LCPLFPPCFLVLHHILGFLYPRFFLFVFSLVDCLLYFSLSFLVCVRFCLCLGL,78000
20,VRVRVRVQGREQVQVQVRELHPEQGHPHQEQEPLHLAREHHPELHQQKDQEHL,52900
21,KCLRLAIHIPLYPLFRTALVLRVQPSNAPLIRSVKDFLIYYLHDLQRFFILSP,70000

row,Sequence,transcriptional activation domain activity
1,KQYCVRPNSGRIEPGKEVEVTVLLQAMKQEPPIDAKCRDKFLVQSVAVTADKE,51300
2,SRLRKTGTPTSSQHSSTAFSGYIDDPFNLNEILPLPASDFKLNTVTNLNEIDF,106000
3,TGLDGTAYVMFWTINVNVLMLLSQWILEERVRSRALQFCFRYYYFMVYFIFYR,55300
4,MPASSSTAAASPGNSHNVVGVHYKVGKKIGEGSFGIIYEGKQKEERTNLLNNQ,35300
5,LRALCFEAIRNKGQSVMIARLLQRYMGQLTWLRGGNGVSLLVMVVRDVLLEMQ,58900
6,VSMMQRILNIVCILPSLLERYDTLVALSETSNLGEVERLWIDCHAFLTNLRIW,62400
7,SVKTKAAGKGKPKTTNDKATKSSEPRKAAKVSDDETKPTSNGAASAKAGGERQ,23600
8,APMGRRTFAVDVDESGNSLAKKVKAARVKGYNYIIVVGERDLERGTAAVECVV,36000
9,FRYLSYSKWLILALYINSWAYVVLSMLLVYVVSASRKGRWRSASYRFHMILLS,64100
10,MYNLNLFYFSFFLSLSLFLFFFPLPFFFRSVWFANLFFVLLFLYYVPFLSHSC,58700
11,KLTLADLAPSPMAYRLWMFISGLYSLVDPFVRPLVRTYFAACLRLLIRWVPGI,59400
12,GNDEAGAEDTDEDEIEGEGEEGQAPADGNEEEGAGEGESSRAMKKIGKKKAEK,16600
13,SQLQDPIAKEHVAFGLRHMYKTLQNEVKSYYNLMQSLHVRLPGLEFLTLWMAF,50100
14,MMLPLVQGWGSTDGFFIFIFIFFIFAFLFNLSIYRSFFFLPFLFFYMEVLLRL,73300
15,KSVSRLHAKIEYDQEEDRFVLLVVGRNGAWVDGVWSASGTRACLGERSQIQIA,42000
16,FFLLRNGFIFEDMARYRFYTCSQLWLWLIFLAVRSEIGLQRVYVFFVFMLFQV,49800
17,MAPETKNKKRKSGVTASSPSTKKLKKAEAPVAEEAPAPVKSTKKSKAAAPKAE,43300
18,FTRHLSKEEIDVVVDCVWRASKLRNCTRVTVMECCVRTAPWFNSDGVICAYIM,49700
19,LSVSLVYNSAYLLQRISFWVISFSTYTLPTWLFTLFSTSLTFTMNFTTLLIIV,78700
20,ALPERIKTFHAHGIFLALHCFLLQHGPQPISIWLLLALIKGRRRCLFPSIFFC,36200
21,MHASFIFLSSTSGVIHTYILYLDLVAYFLLSLGGFVLIIGFWRWGFCCFFLPS,69100

row,Sequence,transcriptional activation domain activity
1,MMFETHFWSLSSLLLLFFLSFFFFLYIWGSRFFFFQFPFPFPFPFPFFFSIFF,53800
2,PGVRGNTESIFLLICNLPYLEHPDKVARTVYKIIWGEHHRNLLRLTYWLHRCP,68200
3,PSCCLSFFPDFSFFSVFFSLLVYFPFRALYDLLFVDLLLILFLFILIFFHLFL,33000
4,ILDDFFNDGACNEINVILDKAKVRRDFLDYFMPEKEVKAEGDRSIVYILSNPK,59200
5,IRLVSSEMIRYLKKHDFKDITYYTLYISLMGFSKRYYRQGILMLKCVDIEVIY,74500
6,LLLCGEICVACIVLYIHIVFFFGFFFFFLLGMIGLCLTFSNQLILFVYFLYFL,43200
7,STIHNLAELVFLEELCGFCCFSMRFVVFLDLFGTIILPATCVYIGYLIYVIAT,44600
8,KGEERGMEKDKEKDKDRDREVKKEKAREARADKEGARPKAAIRQVKVKSAVKQ,56500
9,SHREEAHEKASESESESGSEEQGSGGEKSEPKPEAEADGAADEASPGEEEGSQ,24600
10,MPQTAGQAVWHFILSLLYYQFVPFHIRRFIFSCFPLPVNIPTLFVFLNVLFFW,51600
11,PEAAPGEEVKEEAGEEQKPDRRDRRGRDRGGRGGRDRGRGRGGASRGGKRGDT,26700
12,HGTLCDIYLVIILKCCGDDDNSVSLVEGIALAPSSARSNAFERVGKFGGGPES,46900
13,EEAAVESEAPKKKGRAKRVKPEPEVDDEPAVEQPKKKGRVKKAKVEPEPEADE,46900
14,GKPRKRLAQACLTCREKKIKCEPGYPKCHQCAKSQRVCRGGLNQASIGNASGE,36100
15,RAAAVRGAAQEPQPESRGTSATPARKTAKTEGEEKPAKKRRTAGGDKANKRSK,9380
16,SNARGSDPSSYAIEGEYKTLATDDLGNILNLNYGETNEVIMNEINDLNLPLGP,112000
17,GSEDRRKSSRSRDRRERRSRSRDKSHRDRERERDKDRERRHRDHEPRHSHRDR,43300
18,IIAKVIKYAKTIEELYLAYFSVKEYLLNIAIAKTCLTYLTDIKGSHSMIRYNF,28200
19,MSETNAPAASAPDALAEGIAKLDVGAEGAQASEAAAPQANGAGEAAPAAAEAS,23400
